# Experimental data as given in patent US12269859B2, “Synthetic immune receptors and methods of use thereof” (Angeles Therapeutics, Inc., priority 2016, dated 2025).
# Tested on: target antigen-expressing cell line
# Experiment: Jurkat NFAT-GFP assay, coculture with target cell lines expressing the respective target antigen (summary Table 10A)
# Assay type: cell-based, human
# Parameters: key: The signs +/−, +, 2+ etc. after the name of the cell lines indicate the relative degree of positivity on the Jurkat-NFAT-GFP assay as measured by the % GFP positive cells; +: relative degree of positivity on the Jurkat-NFAT-GFP assay as measured by the % GFP positive cells; 2+: relative degree of positivity on the Jurkat-NFAT-GFP assay as measured by the % GFP positive cells
# Conditions: relative % GFP positive cells; for NFAT-GFP ASSAY Positive Cell lines: RAJI: SIR-expressing Jurkat-NFAT-GFP cells cocultured with RAJI
# Outline: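 Jurkat cells carrying an NFAT-driven GFP reporter and lentivirally expressing a SIR were cocultured with antigen-bearing target cells (E:T ~1:2) for about 4–18 h. GFP induction read by flow cytometry as % GFP+ cells, scored positive and graded (+/−, +, 2+) against parental Jurkat-NFAT-GFP cells.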
molecule,measurement,setting,value
"083116-D03 (protein, Polynucleotide encoding a Synthetic Immune Receptor (SIR)) MALPVTALLLPLALLLHAARPLEGKPIPNPLLGLDSTGSGEDLKNVFPPEVAVFEPSKAEIAHTQKATLVCLATGFYPDHVELSWWVNGKEVHSGVCTDPQPLKEQPALNDSRYCLSSRLRVSATFWQNPRNHFRCQVQFYGLSENDEWTQDRAKPVTQIVSAEAWGRADCGITSASYHQGVLSATILYEILLGKATLYAVLVSALVLMAMVKRKDSRGRAKRSGSGATNFSLLKQAGDVEENPGPTSMALPVTALLLPLALLLHAARPDIQMTQSPATIENTSLSASVGDRVTITCRASQGISSWLTWYQQKPEKAPKSLIYAASSLQSGVPSRFSGSGSGTDFTLTISSLQPEDFATYYCQQYDSYPITFGQGTRLEIKGGGGSGGGGSGGGGSQVQLQQWGAGLLKPSETLSLTCAVYGGSFSAYYWSWIRQPPGKGLEWIGDINHGGGTNYNPSLKSRVTISVDTSKNQFSLKLNSVTAADTAVYYCASLTAYWGQGSLVTVSSTREQKLISEEDLGSGTPFPSLAPPIMLLVDGKQQMVVVCLVLDVAPPGLDSPIWFSAGNGSALDAFTYGPSPATDGTWTNLAHLSLPSEELASWEPLVCHTGPGAEGHSRSTQPMHLSGEASTARTCPQEPLRGTPGGALWLGVLRLLLFKLLLFDLLLTCSCLCDPAGPLPSPATTTRLRALGSHRLHPATETGGREATSSPRPQPRDRRWGDTPPGRKPGSPVRAKRSGSGVKQTLNFDLLKLAGDVESNPGPSRSRGHMTEYKPTVRLATRDDVPRAVRTLAAAFADYPATRHTVDPDRHIERVTELQELFLTRVGLDIGKVWVADDGAAVAVWTTPESVEAGAVFAEIGPRMAELSGSRLAAQQQMEGLLAPHRPKEPAWFLATVGVSPDHQGKGLGSAVVLPGVEAAERAGVPAFLETSAPRNLPFYERLGFTVTADVEVPEGPRTWCMTRKPGA",NFAT-GFP ASSAY Positive Cell lines: L428,SIR-expressing Jurkat-NFAT-GFP cells cocultured with L428,L428 (+/−)
062717-Q04 (protein) MALPVTALLLPLALLLHAARPLEGKPIPNPLLGLDSTGSGEDLKNVFPPEVAVFEPSKAEIAHTQKATLVCLATGFYPDHVELSWWVNGKEVHSGVCTDPQPLKEQPALNDSRYCLSSRLRVSATFWQNPRNHFRCQVQFYGLSENDEWTQDRAKPVTQIVSAEAWGRADCGITSASYHQGVLSATILYEILLGKATLYAVLVSALVLMAMVKRKDSRGRAKRSGSGATNFSLLKQAGDVEENPGPTSMALPVTALLLPLALLLHAARPQSALTQPASASGSPGQSVTISCTGTSSDVGGYNYVSWYQQHPGKAPKLMIYDVSNRPSGVSNRFSGSKSGNTASLTISGLQAEDEADYYCSSYTSSSTLYVFGTGTQLTVLGGGGSGGGGSGGGGSEVQLQQSGPGLVKPSQTLSLTCAISGDSMLSNSDTWNWIRQSPSRGLEWLGRTYHRSTWYDDYASSVRGRVSINVDTSKNQYSLQLNAVTPEDTGVYYCARVRLQDGNSWSDAFDVWGQGTMVTVSSTREQKLISEEDGSGIQNPDPAVYQLRDSKSSDKSVCLFTDFDSQTNVSQSKDSDVYITDKCVLDMRSMDFKSNSAVAWSNKSDFACANAFNNSIIPEDTFFPSSDVPCDVKLVEKSFETDTNLNFQNLSVIGFRILLLKVAGFNLLMTLRLWSSRAKRSGSGVKQTLNFDLLKLAGDVESNPGPSRGHMTEYKPTVRLATRDDVPRAVRTLAAAFADYPATRHTVDPDRHIERVTELQELFLTRVGLDIGKVWVADDGAAVAVWTTPESVEAGAVFAEIGPRMAELSGSRLAAQQQMEGLLAPHRPKEPAWFLATVGVSPDHQGKGLGSAVVLPGVEAAERAGVPAFLETSAPRNLPFYERLGFTVTADVEVPEGPRTWCMTRKPGA,NFAT-GFP ASSAY Positive Cell lines: RAJI,,RAJI (+)
"041216-G06 (protein, Polynucleotide encoding a Synthetic Immune Receptor (SIR)) MALPVTALLLPLALLLHAARPDEIVLTQSPGSLAVSPGERVTMSCKSSQSVFFSSSQKNYLAWYQQIPGQSPRLLIYWASTRESGVPDRFTGSGSGTDFTLTISSVQPEDLAIYYCHQYLSSRTFGQGTKLEIKRLEGKPIPNPLLGLDSTGSGEDLKNVFPPEVAVFEPSKAEIAHTQKATLVCLATGFYPDHVELSWWVNGKEVHSGVCTDPQPLKEQPALNDSRYCLSSRLRVSATFWQNPRNHFRCQVQFYGLSENDEWTQDRAKPVTQIVSAEAWGRADCGITSASYHQGVLSATILYEILLGKATLYAVLVSALVLMAMVKRKDSRGRAKRSGSGATNFSLLKQAGDVEENPGPTSMDWIWRILFLVGAATGAHSFEQVQLQQPGAEVVKPGASVKMSCKASGYTFTSYYIHWIKQTPGQGLEWVGVIYPGNDDISYNQKFQGKATLTADKSSTTAYMQLSSLTSEDSAVYYCAREVRLRYFDVWGQGTTVTVSSTREQKLISEEDGSGTPFPSLAPPIMLLVDGKQQMVVVCLVLDVAPPGLDSPIWFSAGNGSALDAFTYGPSPATDGTWTNLAHLSLPSEELASWEPLVCHTGPGAEGHSRSTQPMHLSGEASTARTCPQEPLRGTPGGALWLGVLRLLLFKLLLFDLLLTCSCLCDPAGPLPSPATTTRLRALGSHRLHPATETGGREATSSPRPQPRDRRWGDTPPGRKPGSPVRAKRSGSGVKQTLNFDLLKLAGDVESNPGPSRGHMTEYKPTVRLATRDDVPRAVRTLAAAFADYPATRHTVDPDRHIERVTELQELFLTRVGLDIGKVWVADDGAAVAVWTTPESVEAGAVFAEIGPRMAELSGSRLAAQQQMEGLLAPHRPKEPAWFLATVGVSPDHQGKGLGSAVVLPGVEAAERAGVPAFLETSAPRNLPFYERLGFTVTADVEVPEGPRTWCMTRKPGA",NFAT-GFP ASSAY Positive Cell lines: HL60,SIR-expressing Jurkat-NFAT-GFP cells cocultured with HL60,+
same,NFAT-GFP ASSAY Positive Cell lines: KG1,SIR-expressing Jurkat-NFAT-GFP cells cocultured with KG1,KG1 (+/−)
same,NFAT-GFP ASSAY Positive Cell lines: RAJI,,"RAJI (+/−), HL60"
same,NFAT-GFP ASSAY Positive Cell lines: THP1,SIR-expressing Jurkat-NFAT-GFP cells cocultured with THP1,+/−
042517-A03 (protein) MALPVTALLLPLALLLHAARPQSALTQPASASGSPGQSVTISCTGTSSDVGGYNYVSWYQQHPGKAPKLMIYDVSNRPSGVSNRFSGSKSGNTASLTISGLQAEDEADYYCSSYTSSSTLYVFGTGTQLTVLLEIQNPDPAVYQLRDSKSSDKSVCLFTDFDSQTNVSQSKDSDVYITDKCVLDMRSMDFKSNSAVAWSNKSDFACANAFNNSIIPEDTFFPSSDVPCDVKLVEKSFETDTNLNFQNLSVIGFRILLLKVAGFNLLMTLRLWSSRAKRSGSGVKQTLNFDLLKLAGDVESNPGPTSMDWIWRILFLVGAATGAHSFEEVQLQQSGPGLVKPSQTLSLTCAISGDSMLSNSDTWNWIRQSPSRGLEWLGRTYHRSTWYDDYASSVRGRVSINVDTSKNQYSLQLNAVTPEDTGVYYCARVRLQDGNSWSDAFDVWGQGTMVTVSSTREDLKNVFPPEVAVFEPSKAEIAHTQKATLVCLATGFYPDHVELSWWVNGKEVHSGVCTDPQPLKEQPALNDSRYCLSSRLRVSATFWQNPRNHFRCQVQFYGLSENDEWTQDRAKPVTQIVSAEAWGRADCGITSASYHQGVLSATILYEILLGKATLYAVLVSALVLMAMVKRKDSRGRAKRSGSGATNFSLLKQAGDVEENPGPSRGHMTEYKPTVRLATRDDVPRAVRTLAAAFADYPATRHTVDPDRHIERVTELQELFLTRVGLDIGKVWVADDGAAVAVWTTPESVEAGAVFAEIGPRMAELSGSRLAAQQQMEGLLAPHRPKEPAWFLATVGVSPDHQGKGLGSAVVLPGVEAAERAGVPAFLETSAPRNLPFYERLGFTVTADVEVPEGPRTWCMTRKPGA,NFAT-GFP ASSAY Positive Cell lines: RAJI,,RAJI (+)
062717-P06 (protein) MALPVTALLLPLALLLHAARPLEGKPIPNPLLGLDSTGSGEDLKNVFPPEVAVFEPSKAEIAHTQKATLVCLATGFYPDHVELSWWVNGKEVHSGVCTDPQPLKEQPALNDSRYCLSSRLRVSATFWQNPRNHFRCQVQFYGLSENDEWTQDRAKPVTQIVSAEAWGRADCGITSASYHQGVLSATILYEILLGKATLYAVLVSALVLMAMVKRKDSRGRAKRSGSGATNFSLLKQAGDVEENPGPTSMALPVTALLLPLALLLHAARPEVQLQQSGPGLVKPSQTLSLTCAISGDSVSSNSAAWNWIRQSPSRGLEWLGRTYYRSKWYSDYAVSVKSRITINPDTSKNQFSLQLNSVTPEDTAVYYCARDPYDFWSGYPDAFDIWGQGTMVTVSSGGGGSGGGGSGGGGSQSALTQPASVSGSPGQSITISCTGTSSDVGGYNYVSWYQQHPGKAPKVIISEVNNRPSGVSHRFSGSKSGNTASLTISGLQAEDEADYFCSSYTSGRTLYVFGTGSKVTVLGTREQKLISEEDGSGIQNPDPAVYQLRDSKSSDKSVCLFTDFDSQTNVSQSKDSDVYITDKCVLDMRSMDFKSNSAVAWSNKSDFACANAFNNSIIPEDTFFPSSDVPCDVKLVEKSFETDTNLNFQNLSVIGFRILLLKVAGFNLLMTLRLWSSRAKRSGSGVKQTLNFDLLKLAGDVESNPGPSRGHMTEYKPTVRLATRDDVPRAVRTLAAAFADYPATRHTVDPDRHIERVTELQELFLTRVGLDIGKVWVADDGAAVAVWTTPESVEAGAVFAEIGPRMAELSGSRLAAQQQMEGLLAPHRPKEPAWFLATVGVSPDHQGKGLGSAVVLPGVEAAERAGVPAFLETSAPRNLPFYERLGFTVTADVEVPEGPRTWCMTRKPGA,NFAT-GFP ASSAY Positive Cell lines: RAJI,,RAJI (+/−)
062717-O02 (protein) MALPVTALLLPLALLLHAARPLEGKPIPNPLLGLDSTGSGEDLKNVFPPEVAVFEPSKAEIAHTQKATLVCLATGFYPDHVELSWWVNGKEVHSGVCTDPQPLKEQPALNDSRYCLSSRLRVSATFWQNPRNHFRCQVQFYGLSENDEWTQDRAKPVTQIVSAEAWGRADCGITSASYHQGVLSATILYEILLGKATLYAVLVSALVLMAMVKRKDSRGRAKRSGSGATNFSLLKQAGDVEENPGPTSMALPVTALLLPLALLLHAARPEVQLQQSGPGLVKPSQTLSLTCAISGDSVLSNSDTWNWIRQSPSRGLEWLGRTYHRSTWYDDYASSVRGRVSINVDTSKNQYSLQLNAVTPEDTGVYYCARDRLQDGNSWSDAFDVWGQGTMVTVSSGGGGSGGGGSGGGGSQSALTQPASVSGSPGQSITISCTGTSSDVGGYNYVSWYQQHPGKAPKLMIYDVSNRPSGVSNRFSGSKSGNTASLTISGLQAEDEADYYCSSYTSSSTLVYVFGTGTKVTVLTREQKLISEEDGSGIQNPDPAVYQLRDSKSSDKSVCLFTDFDSQTNVSQSKDSDVYITDKCVLDMRSMDFKSNSAVAWSNKSDFACANAFNNSIIPEDTFFPSSDVPCDVKLVEKSFETDTNLNFQNLSVIGFRILLLKVAGFNLLMTLRLWSSRAKRSGSGVKQTLNFDLLKLAGDVESNPGPSRGHMTEYKPTVRLATRDDVPRAVRTLAAAFADYPATRHTVDPDRHIERVTELQELFLTRVGLDIGKVWVADDGAAVAVWTTPESVEAGAVFAEIGPRMAELSGSRLAAQQQMEGLLAPHRPKEPAWFLATVGVSPDHQGKGLGSAVVLPGVEAAERAGVPAFLETSAPRNLPFYERLGFTVTADVEVPEGPRTWCMTRKPGA,NFAT-GFP ASSAY Positive Cell lines: RAJI,,RAJI (+/−)
